Experimental data as given in EP4703388A1.

Columns and labels:
[1] = target: HuRatTF, human-rat hybrid TF antigen (human-rat hybrid); experiment: ELISA, HuRatTF coated, antibody titrated
[2] = target: human tissue factor (TF) on MDA-MB-231, NCI-H358 and HCT116 cells (human) (UniProt P13726); experiment: cell-based or functional assay
human tissue factor (TF) on MDA-MB-231, NCI-H358 and HCT116 cells (human), sequence (P13726 33-295): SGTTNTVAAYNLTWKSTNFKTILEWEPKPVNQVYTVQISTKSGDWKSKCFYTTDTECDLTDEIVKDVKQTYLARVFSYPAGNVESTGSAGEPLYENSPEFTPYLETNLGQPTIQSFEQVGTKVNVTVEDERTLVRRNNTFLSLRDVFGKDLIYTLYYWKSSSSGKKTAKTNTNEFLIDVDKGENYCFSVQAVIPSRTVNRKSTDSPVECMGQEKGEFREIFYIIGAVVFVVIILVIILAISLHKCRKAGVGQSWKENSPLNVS

HuRatTF, human-rat hybrid TF antigen (human-rat hybrid), sequence (chain, as listed by the source limits assumed): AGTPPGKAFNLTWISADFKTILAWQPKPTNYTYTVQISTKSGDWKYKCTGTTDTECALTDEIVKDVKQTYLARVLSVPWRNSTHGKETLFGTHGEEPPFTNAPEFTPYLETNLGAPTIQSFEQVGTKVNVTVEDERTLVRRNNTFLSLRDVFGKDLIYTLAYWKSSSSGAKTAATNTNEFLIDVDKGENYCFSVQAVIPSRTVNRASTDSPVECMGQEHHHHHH

Maximum (OD450 nm) [1]: 0.0585 OD450 nm
Inhibition rate (%), Factor-VII-Human Chromogenic-Activity blood coagulation pathway assay (FVIIa, MDA-MB-231 cells, FX; antibody 20 µg/mL) [2]: 92.8%
Substance: TF011 (monoclonal antibody sequence of tisotumab vedotin)
